Measured values as given in patent US20180201910.

T1: ferredoxin encoded by FD gene 3 (Fd7), YP_001865513, Nostoc punctiforme PCC 73102
T1 chain: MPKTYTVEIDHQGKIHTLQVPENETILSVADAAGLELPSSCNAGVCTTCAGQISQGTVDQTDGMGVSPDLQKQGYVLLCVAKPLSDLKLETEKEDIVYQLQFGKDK

T2: ferredoxin encoded by FD gene 5 (Fd4), YP_001864061, Nostoc punctiforme PCC 73102
T2 chain: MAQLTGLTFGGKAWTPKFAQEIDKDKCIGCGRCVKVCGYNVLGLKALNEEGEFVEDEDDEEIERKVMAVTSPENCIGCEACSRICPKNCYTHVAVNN

T3: ferredoxin encoded by FD gene 2 (Fd6), YP_001864826, Nostoc punctiforme PCC 73102
T3 chain: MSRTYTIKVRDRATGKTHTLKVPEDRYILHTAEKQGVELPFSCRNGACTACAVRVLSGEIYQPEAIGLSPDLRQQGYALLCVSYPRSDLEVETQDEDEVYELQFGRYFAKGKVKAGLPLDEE

T4: ferredoxin encoded by FD gene 1 (Fd5), YP_001864105, Nostoc punctiforme PCC 73102
T4 chain: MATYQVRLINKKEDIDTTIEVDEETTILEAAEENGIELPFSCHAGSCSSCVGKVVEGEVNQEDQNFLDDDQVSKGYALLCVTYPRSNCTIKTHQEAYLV

B1: ferredoxin reductase encoded by FDR gene 1 (FDR1), YP_001865390, Nostoc punctiforme PCC 73102 (protein)
chain: MNSPVYQTVIVGGGFTGLFTALHLAHEHYPRSVILIDKDERFCFKPLLYEYFDGEMDTFQVVPRFSELLKGSGVIFVQDTVQSINLHQREVKLASGNSYNYSNLVLALGSVTGYHQVEGARENAFPFWTQADAIALDRHLRDCLQKAVQTEDVEQRRKLLTVVIVGGGASGVEMAATLADFLPHWYSALGGNSSEIRVVLLNHGKEILDGDINNPLREIAERELNKRAVPIEMIVEAEATAIGSTSIQYKRNEQIETLATHTTVWTAGTSTHPLIKDLPIPKEHRDRRDRPLVTPNLQLLDFPEVFVGGDCAAVQDNSLPPTAQVAYQQGANIAQNLKALALGEEPKPAKVNIRGTLLKLGINDAAANLFNVFEVVGETAHLIRQGTYLTLLPAPIHDFKATTEWVDEEVFHQHLDPHDVGKKVVQAAEIVGVGVVGILAARKLLKMLGDEDKNSK
B2: ferredoxin reductase encoded by FDR gene 2 (FDR2), YP_001866231, Nostoc punctiforme PCC 73102 (protein)
chain: MYNQGAVEGAANIELGSRIFVYEVVGLRQGEETDQTNYPIRKSGSVFIRVPYNRMNQEMRRITRLGGTIVSIQPITALEPVNGKASFGNATSVVSELAKSGETANSEGNGKATPVNAHSAEEQNKDKKGNTMTQAKAKKDHGDVPVNTYRPNAPFIGKVISNEPLVKEGGIGIVQHLKFDLSGGDLKYIEGQSIGIIPPGLDKNGKPEKLRLYSIASTRHGDDVDDKTVSLCVRQLEYKHPETGETVYGVCSTHLCFLKPGEEVKITGPVGKEMLLPNDPDANVIMMATGTGIAPMRAYLWRQFKDAERAANPEYQFKGFSWLIFGVPTTPNLLYKEELEEIQQKYPENFRLTAAISREQKNPQGGRMYIQDRVAEHADELWQLIKNEKTHTYICGLRGMEEGIDAALTAAAAKEGVTWSDYQKQLKKAGRWHVETY
B3: ferredoxin reductase encoded by FDR gene 3 (FDR3), YP_001868825, Nostoc punctiforme PCC 73102 (protein)
chain: MSFTSMPSLREQQHPLIRQLADCIEAAWHQHLDLSPYHLPDELGYVEGRLEGEKLTIENRCYQTPQFRKMHLELANIGNMLDILHCVMFPRPQYNLPMFGCDLVGGRGQISAAIADLSPIQLERTLPESYTTALAQLPVLNFSQPRELPEWGNIFSDFCIFVRPGSPEEEAMFLSRVREFLDIHCMQAIASHPVSVEQVTQNLAGQHNYCTKQQQNDKTRRVLEKAFGPVWAENYMTTVLFDLPT

Experiments:
[1] = target: T1, ferredoxin encoded by FD gene 3 (Fd7), …
[2] = target: T2, ferredoxin encoded by FD gene 5 (Fd4), …
[3] = target: T3, ferredoxin encoded by FD gene 2 (Fd6), …
[4] = target: T4, ferredoxin encoded by FD gene 1 (Fd5), …
[5] = target: ferredoxin encoded by FD gene 4 (Fd8), YP_001867060, Nostoc punctiforme PCC 73102
Sequence of ferredoxin encoded by FD gene 4 (Fd8), YP_001867060, Nostoc punctiforme PCC 73102 (chain, as listed by the source): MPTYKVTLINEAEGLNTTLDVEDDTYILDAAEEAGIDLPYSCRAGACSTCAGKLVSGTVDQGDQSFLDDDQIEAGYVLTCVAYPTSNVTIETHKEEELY

Protein	amount of alkane production 3 days after the initiation of culture compared with the amount of Strain No. 2 (E. coli Rosetta co-expressing decarbonylase and acyl-ACP reductase, GC/MS) [1]	amount of alkane production 3 days after the initiation of culture compared with the amount of Strain No. 2 (E. coli Rosetta co-expressing decarbonylase and acyl-ACP reductase, GC/MS) [2]	amount of alkane production 3 days after the initiation of culture compared with the amount of Strain No. 2 (E. coli Rosetta co-expressing decarbonylase and acyl-ACP reductase, GC/MS) [3] [times]	amount of alkane production 3 days after the initiation of culture compared with the amount of Strain No. 2 (E. coli Rosetta co-expressing decarbonylase and acyl-ACP reductase, GC/MS) [4]	amount of alkane production 3 days after the initiation of culture compared with the amount of Strain No. 2 (E. coli Rosetta co-expressing decarbonylase and acyl-ACP reductase, GC/MS) [5]	effects of improving the alkane productivity in the E. coli JM109 strain [1]	effects of improving the alkane productivity in the Klebsiella sp. 100048 strain [1]
B1	x	x	2.4	2.5 times	2.6 times		
B2	3.8 times	x	2.5	1.9 times	3.0 times	two times greater in the E. coli JM109 strain	4 times greater than the effects in the Klebsiella sp. 100048 strain
B3	2.0 times	x	3.4	x	x		
